{"source": "patent US20180163176A1", "about": "(NANTKWEST, published 2018)", "target": "CD33 (UniProt P20138 18-364, limits assumed)", "sequence (P20138 18-364 limits assumed)": "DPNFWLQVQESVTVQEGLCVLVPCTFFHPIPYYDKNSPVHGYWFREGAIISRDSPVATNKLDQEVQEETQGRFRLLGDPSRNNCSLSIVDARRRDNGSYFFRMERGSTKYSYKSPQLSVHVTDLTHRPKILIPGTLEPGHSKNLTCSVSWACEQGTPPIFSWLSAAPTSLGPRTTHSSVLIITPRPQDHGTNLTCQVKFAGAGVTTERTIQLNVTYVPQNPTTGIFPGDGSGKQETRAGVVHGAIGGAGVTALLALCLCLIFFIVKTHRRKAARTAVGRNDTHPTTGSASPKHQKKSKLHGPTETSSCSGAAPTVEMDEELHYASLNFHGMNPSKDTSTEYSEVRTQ", "assay": "cell-based or functional assay"}
{"binder": "CD33-CAR (other) MDWIWRILFLVGAATGAHSAQPADIQMTQSPSSLSASVGDRVTITCRASESVDNYGISFMNWFQQKPGKAPKLLIYAASNQGSGVPSRFSGSGSGTDFTLTISSLQPDDFATYYCQQSKEVPWTFGQGTKVEIKGGGGSGGGGSGGGGSQVQLVQSGAEVKKPGSSVKVSCKASGYTFTDYNMHWVRQAPGQGLEWIGYIYPYNGGTGYNQKFKSKATITADESTNTAYMELSSLRSEDTAVYYCARGRPAMDYWGQGTLVTVSSALSNSIMYFSHFVPVFLPAKPTTTPAPRPPTPAPTIASQPLSLRPEASRPAAGGAVHTRGLDPKLCYLLDGILFIYGVILTALFLRVKFSRSADAPAYQQGQNQLYNELNLGRREEYDVLDKRRGRDPEMGGKPRRKNPQEGLYNELQKDKMAEAYSEIGMKGERRRGKGHDGLYQGLSTATKDTYDALHMQALPPR", "values": [{"measurement": "cytotoxicity against aNK resistant cell lines at 24 hours (flow cytometry assay)", "result": "> 80", "unit": "%"}]}
